Measurements taken from PMC10767699, “Custom Design of a Humidifier Chamber for InMeso Crystallization” (Crystal Growth & Design, 2023).

Molecular target: the molecule itself
Assay: crystal structure; in meso (monoolein mesophase) crystallization of apo GltTk, 21 °C; space groups H3_(2) and P6_(3)22; one protomer in the asymmetric unit, trimer generated by crystal symmetry

B1: transmembrane aspartate transporter GltTk from Thermococcus kodakarensis (natural protein)
chain: MGKSLLRRYLDYPVLWKILWGLVLGAVFGLIAGHFGYAGAVKTYIKPFGDLFVRLLKMLVMPIVLASLVVGAASISPARLGRVGVKIVVYYLATSAMAVFFGLIVGRLFNVGANVNLGSGTGKAIEAQPPSLVQTLLNIVPTNPFASLAKGEVLPVIFFAIILGIAITYLMNRNEERVRKSAETLLRVFDGLAEAMYLIVGGVMQYAPIGVFALIAYVMAEQGVRVVGPLAKVVGAVYTGLFLQIVITYFILLKVFGIDPIKFIRKAKDAMITAFVTRSSSGTLPVTMRVAEEEMGVDKGIFSFTLPLGATINMDGTALYQGVTVLFVANAIGHPLTLGQQLVVVLTAVLASIGTAGVPGAGAIMLAMVLQSVGLDLTPGSPVALAYAMILGIDAILDMGRTMVNVTGDLAGTVIVAKTEKELDESKWISHHHHHHHH
  stoichiometry N: 3
